These results are taken from patent publication US20220275101A1, “Use of Approved Anti-CD38 Antibody Drug Product to Treat Light Chain Amyloidosis” (Janssen Biotech, Inc., priority 2021, published 2022).

Data set [1] is described as follows: Daratumumab pharmacokinetics in patients with multiple myeloma. The data set is classed as in vivo, human.
The test system of data set [2] is relapsed or refractory multiple myeloma. In words: COLUMBA monotherapy, efficacy. It is filed as in vivo, human. The text has this:
The major efficacy outcome measures were ORR by the IMWG response criteria and maximum Ctrough at pre-dose Cycle 3 Day 1 [see Clinical Pharmacology (12.3)]. Randomization was stratified by body weight, myeloma type, and number of prior lines of therapy.

The nature of data set [3]: COLUMBA monotherapy, safety (relapsed/refractory multiple myeloma).
Experimental: FASPRO 1,800 mg/30,000 units administered subcutaneously or daratumumab 16 mg/kg administered intravenously; each administered once weekly from weeks 1 to 8, once every 2 weeks from weeks 9 to 24 and once every 4 weeks starting with week 25 until disease progression or unacceptable toxicity.
The target in data set [4] is T1, CD38 on red blood cells (RBCs) (Homo sapiens, UniProt P28907).
T1 construct: endogenous in cells; host or cells: red blood cells (reagent RBCs used in blood-bank compatibility testing)
In words: Interference with Indirect Antiglobulin Test (Indirect Coombs test). The text has this: Daratumumab binds to CD38 on red blood cells (RBCs) and results in a positive Indirect Antiglobulin Test (Indirect Coombs test). Daratumumab-mediated positive indirect antiglobulin test may persist for up to 6 months after the last daratumumab administration. Daratumumab bound to RBCs masks detection of antibodies to minor antigens in the patient's serum [see References (15)]. The determination of a patient's ABO and Rh blood type are not impacted [see Drug Interactions (7.1)].
Daratumumab binds to CD38 on RBCs and interferes with compatibility testing, including antibody screening and cross matching. Daratumumab interference mitigation methods include treating reagent RBCs with dithiothreitol (DTT) to disrupt daratumumab binding [see References (15)] or genotyping. Since the Kell blood group system is also sensitive to DTT treatment, supply K-negative units after ruling out or identifying alloantibodies using DTT-treated RBCs.

A short description of data set [5]: Daratumumab pharmacokinetics in patients with light chain (AL) amyloidosis. It is filed as in vivo, human.
Data set [6] in a line: Daratumumab pharmacokinetics after DARZALEX FASPRO, population not specified or pooled. Particulars: DARZALEX FASPRO as monotherapy or combination therapy. The data set is classed as in vivo, human.
Data set [7] in a line: Hyaluronidase subcutaneous exposure and toxicity in monkeys. It is filed as in vivo. The procedure:
No carcinogenicity, genotoxicity, or fertility studies were conducted for recombinant human hyaluronidase. […] As hyaluronidase is a recombinant form of the endogenous human hyaluronidase, no carcinogenicity, mutagenesis, or effects on fertility are expected.

A short description of data set [8]: Hyaluronidase developmental toxicity in mice. It is filed as in vivo. From the text: There were no effects on pre- and post-natal development through sexual maturity in offspring of mice treated daily from implantation through lactation with 990,000 U/kg hyaluronidase subcutaneously, which is 134 times higher than the human doses.
Data set [9] can be described thus: Hyaluronidase effect on permeability of the subcutaneous tissue. From the text:
Hyaluronan is a polysaccharide found in the extracellular matrix of the subcutaneous tissue. It is depolymerized by the naturally occurring enzyme hyaluronidase. Unlike the stable structural components of the interstitial matrix, hyaluronan has a half-life of approximately 0.5 days. Hyaluronidase increases permeability of the subcutaneous tissue by depolymerizing hyaluronan. In the doses administered, hyaluronidase in DARZALEX FASPRO acts locally. The effects of hyaluronidase are reversible and permeability of the subcutaneous tissue is restored within 24 to 48 hours.

The mark [10] stands for this setting: monkeys, 22,000 U/kg/week subcutaneously for 39 weeks.

Marks after values point to notes of the source that are not given here.

Take “Intravenous Daratumumab: daratumumab 16 mg/kg administered intravenously, comparator arm in COLUMBA”: in [1] (patients with multiple myeloma), the “Observed mean ± SD max Ctrough after 8th dose” value is 522 ± 226^a, b μg/mL. Further, in [2], the “CR or better, %” value is on record as 2.7%; the Median progression-free survival was 6.1 months; the “Partial response (PR), %” value was found to be 20%; the “Very good partial response (VGPR), %” value came to 14%. In addition, the “Overall response (sCR + CR + VGPR + PR), %” value in [2] (intent-to-treat population) stood at 37%. In data set [3] (monotherapy), the “Back pain, All Grades” value worked out at 12%; the “Back pain, Grade ≥ 3” value is 3^# %; the “Chills, All Grades” value is 12%; the “Chills, Grade ≥ 3” value is reported as 1^# %. Besides, in [3] (monotherapy), the “Cough, All Grades” value turned out to be 14%; the “Cough, Grade ≥ 3” value is listed as 0^ %; the “Diarrhea, All Grades” value is 11%; the “Diarrhea, Grade ≥ 3” value was 0.4^# %. In addition, in [3] (monotherapy), the “Dyspnea, All Grades” value is on record as 11%; the “Dyspnea, Grade ≥ 3” value is given as 1^# %; the “Fatigue, All Grades” value is given as 16%; the “Fatigue, Grade ≥ 3” value was 2^# %. Moreover, in [3] (monotherapy), the “Infusion reactions, All Grades” value was found to be 34%; the “Infusion reactions, Grade ≥ 3” value was 5^# %; the “Nausea, All Grades” value turned out to be 11%; the “Nausea, Grade ≥ 3” value is listed as 0.4^# %. For the same molecule, in data set [3] (monotherapy), the “Pneumonia, All Grades” value amounted to 10%; the “Pneumonia, Grade ≥ 3” value is listed as 6^@ %; the “Pyrexia, All Grades” value amounted to 13%; the “Pyrexia, Grade ≥ 3” value is listed as 1^# %. Also, in data set [3] (monotherapy), the “Upper respiratory tract infection, All Grades” value was determined as 22% and the “Upper respiratory tract infection, Grade ≥ 3” value is 1^# %. Also, in [3] (worsening from baseline), the “Decreased hemoglobin, All Grades” value came out at 39%; the “Decreased hemoglobin, Grades 3-4” value turned out to be 16%; the “Decreased leukocytes, All Grades” value is 57%; the “Decreased leukocytes, Grades 3-4” value was 14%. In data set [3] (worsening from baseline), the “Decreased lymphocytes, All Grades” value worked out at 56%; the “Decreased lymphocytes, Grades 3-4” value worked out at 36%; the “Decreased neutrophils, All Grades” value was found to be 43%; the “Decreased neutrophils, Grades 3-4” value was found to be 11%. In addition, in [3] (worsening from baseline), the “Decreased platelets, All Grades” value was found to be 45% and the “Decreased platelets, Grades 3-4” value was 14%.

On to “Daratumumab: IgG1κ human monoclonal antibody that binds CD38; heavy chain SEQ ID NO: 12, light chain SEQ ID NO: 13”, for which, in [4], the “persistence of positive indirect antiglobulin test after the last administration” value is recorded as “up to 6 months”. Besides, the “Indirect Antiglobulin Test (Indirect Coombs test) result” value in data set [4] (binding to CD38 on RBCs) is listed as “positive”. Moreover, the “estimated mean volume of distribution, peripheral compartment” value in data set [1] (multiple myeloma) is given as 3.8 L. Besides, the “estimated mean (CV %) elimination half-life associated with linear clearance” value in [1] (multiple myeloma, CV 22%) is 20 days; in data set [5] (CV 74%), 28 days. In data set [1] (multiple myeloma, CV 37%), the “estimated mean (CV) volume of distribution for the central compartment” value was 5.2 L. Also, the “estimated mean (CV %) linear clearance” value is reported as 119 mL/day in data set [1] (multiple myeloma, CV 59%) and 210 mL/day in [5] (CV 42%). Also, the “estimated mean volume of distribution” value in data set [5] (CV 28%) is 10.8 L. The “effect of sex, age (33 to 92 years), renal impairment (CLcr 15 to 89 mL/min) and mild hepatic impairment on pharmacokinetics” value in data set [6] is listed as “no clinically meaningful effect”.

B1: hyaluronidase: recombinant human hyaluronidase rHuPH20, SEQ ID NO: 22, residues 36-482 of wild type human hyaluronidase (protein, listed as Homo sapiens)
chain: LNFRAPPVIPNVPFLWAWNAPSEFCLGKFDEPLDMSLFSFIGSPRINATGQGVTIFYVDRLGYYPYIDSITGVTVNGGIPQKISLQDHLDKAKKDITFYMPVDNLGMAVIDWEEWRPTWARNWKPKDVYKNRSIELVQQQNVQLSLTEATEKAKQEFEKAGKDFLVETIKLGKLLRPNHLWGYYLFPDCYNHHYKKPGYNGSCFNVEIKRNDDLSWLWNESTALYPSIYLNTQQSPVAATLYVRNRVREAIRVSKIPDAKSPLPVFAYTRIVFTDQVLKFLSQDELVYTFGETVALGASGIVIWGTLSIMRSMKSCLLLDNYMETILNPYIINVTLAAKMCSQVLCQEQGVCIRKNWNSSDYLHLNPDNFAIQLEKGGKFTVRGKPTLEDLEQFSEKFYCSCYSTLSCKEKADVKDTDAVDVCIADGVCIDAFLKPPMETEEPQIFY
For the molecule B1, the “systemic exposure of hyaluronidase” value in [7] (monkeys, 22,000 U/kg subcutaneously (12 times the human dose)) was “No systemic exposure of hyaluronidase was detected”. In [7] (setting [10]), the “effects on reproductive tissues and function” value was “no effects”; the “systemic exposure of hyaluronidase” value is “no systemic exposure”. Moreover, the “effects on post-natal development through sexual maturity in offspring” value in data set [8] (mice treated daily during lactation, 990,000 U/kg subcutaneously) is listed as “no effects”. For the same molecule, the “effects on pre- and post-natal development through sexual maturity in offspring” value in [8] (mice treated daily from implantation through lactation, 990,000 U/kg subcutaneously) was “no effects”. Besides, the “effects on embryo-fetal development” value in [8] (pregnant mice, 330,000 U/kg subcutaneously daily during organogenesis) is reported as “no effects”. For the same molecule, in data set [9], the “time until permeability of the subcutaneous tissue is restored” value was 24 to 48 h.
